{
  "source": "paper PMC9935901",
  "about": "(2023)",
  "binders": {"B1": {"name": "β-catenin (surface plasmon resonance) (natural protein)", "chain": "MATQADLMELDMAMEPDRKAAVSHWQQQSYLDSGIHSGATTTAPSLSGKGNPEEEDVDTSQVLYEWEQGFSQSFTQEQVADIDGQYAMTRAQRVRAAMFPETLDEGMQIPSTQFDAAHPTNVQRLAEPSQMLKHAVVNLINYQDDAELATRAIPELTKLLNDEDQVVVNKAAVMVHQLSKKEASRHAIMRSPQMVSAIVRTMQNTNDVETARCTAGTLHNLSHHREGLLAIFKSGGIPALVKMLGSPVDSVLFYAITTLHNLLLHQEGAKMAVRLAGGLQKMVALLNKTNVKFLAITTDCLQILAYGNQESKLIILASGGPQALVNIMRTYTYEKLLWTTSRVLKVLSVCSSNKPAIVEAGGMQALGLHLTDPSQRLVQNCLWTLRNLSDAATKQEGMEGLLGTLVQLLGSDDINVVTCAAGILSNLTCNNYKNKMMVCQVGGIEALVRTVLRAGDREDITEPAICALRHLTSRHQEAEMAQNAVRLHYGLPVVVKLLHPPSHWPLIKATVGLIRNLALCPANHAPLREQGAIPRLVQLLVRAHQDTQRRTSMGGTQQQFVEGVRMEEIVEGCTGALHILARDVHNRIVIRGLNTIPLFVQLLYSPIENIQRVAAGVLCELAQDKEAAEAIEAEGATAPLTELLHSRNEGVATYAAAVLFRMSEDKPQDYKKRLSVELTSSLFRTEPMAWNETADLGLDIGAQGEPLGYRQDDPSYRSFHSGGYGQDALGMDPMMEHEMGGHHPGADYPVDGLPDLGHAQDLMDGLPPGDSNQLAWFDTDL"}},
  "key": {"[1]": {"molecular_target": "Cell-penetrating FaP3 (CP-FaP3)", "experiment": "SPR"}, "[2]": {"molecular_target": "Cell-penetrating FaP2 (CP-FaP2)", "experiment": "SPR"}},
  "data": [
    {"binder": "B1", "values": [
      {"measurement": "Kd", "setting": "[1]", "result": 61.9, "unit": "nM"},
      {"measurement": "Kd", "setting": "[2]", "result": 194, "unit": "nM"}
    ]}
  ]
}
